Measured values as given in patent US20160089393A1, “COMPOSITION AND METHODS FOR COMBATING ANTIBACTERIAL RESISTANT BACTERIA” (BLUEBERRY THERAPEUTICS LIMITED, priority 2013, published 2016).

How the values were obtained:
EMRSA-15 [1] = assay: Oxacillin sensitization: growth of EMRSA-15 with peptide, oxacillin and fixed PHMB; type: cell-based, methicillin-resistant Staphylococcus aureus (MRSA); set-up: key: 1 indicates growth; 0 indicates no growth; conditions: PHMB 1 ug/ml
Method: (§1) Synergy of PHMB and peptides (MecA3136, MecA3140) were tested by a standard checkerboard method of two-fold dilutions. PHMB and peptide were mixed at appropriate concentrations to a final volume of 30 μl in each well of a 96 well plate, and the mixtures were incubated at 20-22° C. for 30 mins before the addition of culture and oxacillin to a final volume of 150 μl. Plates were incubated and scored as above. FIC indices were calculated for wells without growth and containing the lowest combination of PHMB and peptide as follows: (A/MICA)+(B/MICB)=FICA+FICB=FIC index, where A is concentration of PHMB in combination, MICA is MIC of PHMB alone, B is concentration of peptide in combination, MICB is MIC of peptide alone. A control plate without oxacillin, and control wells of culture with increasing oxcaillin but without PHMB and peptide were included. […]

EMRSA-15 [2] = assay: MIC by broth microdilution (antibacterial susceptibility test of EMRSA-15); type: cell-based, methicillin-resistant Staphylococcus aureus (MRSA); conditions: Staphylococcus aureus, read-out: MIC of EMRSA-15 to oxacillin
Method: Antibacterial susceptibility test of EMRSA-15 was carried out according to NCCLS guidelines for broth micro broth dilution with modifications. EMRSA-15 was streaked from a −70° C. glycerol stock to Columbia base agar (Oxoid) supplemented with 5% horse blood (Oxoid) and 6 μg/ml oxacillin (Sigma), and incubated for 18-20 h at 33° C. Two to four bacterial colonies were inoculated into 3 ml Mueller Hinton broth (MHB, Oxoid) supplemented with 6 μg/ml oxacillin (Sigma) and incubated for 18-20 h at 33° C. with shaking at 180 rpm. Cultures were adjusted to OD625 0.08-0.1 (equivalent to 0.5 Mcfarland or 1-2×10^8 cfu/ml) with MHB and further diluted 1/50 to achieve a final concentration of 5×10^5 cfu per well. Susceptibility to either oxacillin, PHMB or peptides was tested by adding oxacillin (0-1024 μg/ml in MHB), PHMB (0-512 μg/ml in 1×PBS) or peptide (0-512 μg/ml in 1×PBS) to 75 μl of culture in a final volume of 150 μl per well. Plates were incubated at 33° C. for 24 h and growth was scored visually.

EMRSA-15 [3] = assay: Checkerboard synergy of PHMB and MecA peptides with oxacillin (FIC index); type: cell-based, methicillin-resistant Staphylococcus aureus (MRSA); conditions: Staphylococcus aureus
Method: Synergy of PHMB and peptides (MecA3136, MecA3140) were tested by a standard checkerboard method of two-fold dilutions. PHMB and peptide were mixed at appropriate concentrations to a final volume of 30 μl in each well of a 96 well plate, and the mixtures were incubated at 20-22° C. for 30 mins before the addition of culture and oxacillin to a final volume of 150 μl. Plates were incubated and scored as above. FIC indices were calculated for wells without growth and containing the lowest combination of PHMB and peptide as follows: (A/MICA)+(B/MICB)=FICA+FICB=FIC index, where A is concentration of PHMB in combination, MICA is MIC of PHMB alone, B is concentration of peptide in combination, MICB is MIC of peptide alone. A control plate without oxacillin, and control wells of culture with increasing oxcaillin but without PHMB and peptide were included.

EMRSA-15 [4] = assay: Oxacillin sensitization: growth of EMRSA-15 with peptide, oxacillin and fixed PHMB; type: cell-based, methicillin-resistant Staphylococcus aureus (MRSA); set-up: key: 1 is growth; 0 is no growth; conditions: MecA3136 0 uM, PHMB 0.25 μg/ml
Method: as §1

EMRSA-15 [5] = assay: as above; type: cell-based, methicillin-resistant Staphylococcus aureus (MRSA)
Method: as §1

[6] = target: T1, MecA (Penicillin binding protein 2A, PBP2A) (Staphylococcus aureus, UniProt P07944); assay: In vitro binding to MecA and block of oxacillin binding; set-up: species or system methicillin-resistant Staphylococcus aureus (MRSA)
T1 construct: The primers were designed so that the first 23 amino acids at the N terminus were deleted; GST (N, cleaved yes); primer-encoded linker LEVLFQGP-M (my own translation of the forward primer); made in house; host or cells: Escherichia coli BL21(DE3)
T1 sequence (P07944 24-670): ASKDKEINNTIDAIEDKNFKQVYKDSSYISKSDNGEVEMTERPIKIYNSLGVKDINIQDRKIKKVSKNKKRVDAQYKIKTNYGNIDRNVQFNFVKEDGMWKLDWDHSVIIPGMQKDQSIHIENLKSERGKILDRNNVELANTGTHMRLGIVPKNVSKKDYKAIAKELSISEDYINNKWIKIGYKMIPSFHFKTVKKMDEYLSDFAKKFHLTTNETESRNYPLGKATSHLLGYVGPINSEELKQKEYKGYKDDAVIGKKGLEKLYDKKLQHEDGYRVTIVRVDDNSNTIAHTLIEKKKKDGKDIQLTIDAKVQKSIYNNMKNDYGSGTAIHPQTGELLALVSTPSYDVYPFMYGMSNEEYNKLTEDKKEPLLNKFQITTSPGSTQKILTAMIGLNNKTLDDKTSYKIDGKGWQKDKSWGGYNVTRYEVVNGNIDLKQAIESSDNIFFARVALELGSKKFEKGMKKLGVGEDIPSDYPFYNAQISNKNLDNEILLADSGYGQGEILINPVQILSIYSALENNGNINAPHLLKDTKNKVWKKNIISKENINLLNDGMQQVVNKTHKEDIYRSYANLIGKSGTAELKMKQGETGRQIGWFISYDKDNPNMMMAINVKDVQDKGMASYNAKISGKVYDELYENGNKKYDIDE
Method: For inhibitor screening recombinantly expressed and purified PBP2a is immobilised using an affinity tag to the surface of the wells of a microtiter plate. The wells are then incubated with serially diluted solutions of the peptide aptamer or indeed any possible inhibitor of PBP2a, plus a PBP2a substrate, such as BIO-AMP (Bobba et al. 2011) at a fixed concentration in PBS. After approximately 15 min, the binding reactions are stopped, and the plates were developed as described (Bobba et al. 2011). The background levels of fluorescence from control reactions are subtracted and then the inhibitor binding data are calculated and plotted to determine the Ki^app of binding.

In the case of Cc1onc(-c2ccccc2)c1C(=O)N[C@@H]1C(=O)N2[C@@H]1SC(C)(C)[C@@H]2C(=O)O [Oxacillin, oxacillin, reference compound], the “Growth of EMRSA-15” value (EMRSA-15 [1]; E1 0 ug/ml, oxacillin 8 ug/ml) is reported as 1, the “Growth of EMRSA-15” value (EMRSA-15 [1]; E1 0 ug/ml, oxacillin 16 ug/ml) is reported as 1 and the “Growth of EMRSA-15” value (EMRSA-15 [1]; E1 0 ug/ml, oxacillin 32 ug/ml) is reported as 1. For the same molecule, the “Growth of EMRSA-15” value (EMRSA-15 [1]; E1 0 ug/ml, oxacillin 64 ug/ml) was 1, the “Growth of EMRSA-15” value (EMRSA-15 [1]; E1 0 ug/ml, oxacillin 128 ug/ml) was 0 and the “Growth of EMRSA-15” value (EMRSA-15 [1]; HIW 0 ug/ml, oxacillin 16 ug/ml) was 1. For the same molecule, the “Growth of EMRSA-15” value (EMRSA-15 [1]; HIW 0 ug/ml, oxacillin 32 ug/ml) was 1, the “Growth of EMRSA-15” value (EMRSA-15 [1]; HIW 0 ug/ml, oxacillin 64 ug/ml) was 0 and the MIC (EMRSA-15 [2]; MHB + 0.25 μg/ml PHMB) was 256 µg/mL. It also gave an MIC (EMRSA-15 [2]; MHB + 176 μg/ml MecA3136) of 128 µg/mL, an MIC (EMRSA-15 [2]; MHB + 176 μg/ml MecA3140) of 128 µg/mL and an MIC (EMRSA-15 [2]; MHB) of 128 µg/mL. For the same molecule, the MIC (EMRSA-15 [3]; oxacillin alone, checkerboard set of experiments) was 256 µg/mL, the MIC (EMRSA-15 [3]; with PHMB and MecA3136 at certain concentrations) was 516 µg/mL and the “Growth of EMRSA-15” value (EMRSA-15 [4]; oxacillin 16 ug/ml) was 1. The “Growth of EMRSA-15” value (EMRSA-15 [4]; oxacillin 32 ug/ml) was 1, the “Growth of EMRSA-15” value (EMRSA-15 [4]; oxacillin 64 ug/ml) was 1 and the “Growth of EMRSA-15” value (EMRSA-15 [4]; oxacillin 128 ug/ml) was 1. For the same molecule, the “Growth of EMRSA-15” value (EMRSA-15 [4]; oxacillin 256 ug/ml) was 0.

B1: E1: MecA (PBP2A) binding peptide aptamer, Sequence ID No. 4; different scaffold to MecA3136 and MecA3140 (protein)
chain: ASAATGVRAVPGNENSLEIEELARFAVDEHNKKENALLEFVRVVKAKEQHWKAKLGHDTMYYLTLEAKDGGKKKLYEAKVWVKLIPTKDFHLNFKELQEFKPVGDAAAAHHHHHH
modifications: Peptide sequence E1
notes: different scaffold to MecA3136 and MecA3140
In the case of B1, the “effect during the assay” value (EMRSA-15 [5]; oxacillin and 1 ug/ml PHMB) is reported as “Sequence E1 is a different scaffold to MecA3136 and MecA3140, but in Table 11 shows a modest effect during the assay”, the “enhancement of oxacillin activity” value (EMRSA-15 [5]; with PHMB) is reported as “Clear enhancement of oxacillin activity” and the “Growth of EMRSA-15” value (EMRSA-15 [1]; E1 5 ug/ml, oxacillin 0 ug/ml) is reported as 1. For the same molecule, the “Growth of EMRSA-15” value (EMRSA-15 [1]; E1 5 ug/ml, oxacillin 8 ug/ml) was 1, the “Growth of EMRSA-15” value (EMRSA-15 [1]; E1 5 ug/ml, oxacillin 16 ug/ml) was 1 and the “Growth of EMRSA-15” value (EMRSA-15 [1]; E1 5 ug/ml, oxacillin 32 ug/ml) was 1. For the same molecule, the “Growth of EMRSA-15” value (EMRSA-15 [1]; E1 5 ug/ml, oxacillin 64 ug/ml) was 0, the “Growth of EMRSA-15” value (EMRSA-15 [1]; E1 5 ug/ml, oxacillin 128 ug/ml) was 0 and the “Growth of EMRSA-15” value (EMRSA-15 [1]; E1 10 ug/ml, oxacillin 0 ug/ml) was 1. For the same molecule, the “Growth of EMRSA-15” value (EMRSA-15 [1]; E1 10 ug/ml, oxacillin 8 ug/ml) was 1, the “Growth of EMRSA-15” value (EMRSA-15 [1]; E1 10 ug/ml, oxacillin 16 ug/ml) was 1 and the “Growth of EMRSA-15” value (EMRSA-15 [1]; E1 10 ug/ml, oxacillin 32 ug/ml) was 1. For the same molecule, the “Growth of EMRSA-15” value (EMRSA-15 [1]; E1 10 ug/ml, oxacillin 64 ug/ml) was 0, the “Growth of EMRSA-15” value (EMRSA-15 [1]; E1 10 ug/ml, oxacillin 128 ug/ml) was 0 and the “Growth of EMRSA-15” value (EMRSA-15 [1]; E1 20 ug/ml, oxacillin 0 ug/ml) was 1. The “Growth of EMRSA-15” value (EMRSA-15 [1]; E1 20 ug/ml, oxacillin 8 ug/ml) was 1, the “Growth of EMRSA-15” value (EMRSA-15 [1]; E1 20 ug/ml, oxacillin 16 ug/ml) was 1 and the “Growth of EMRSA-15” value (EMRSA-15 [1]; E1 20 ug/ml, oxacillin 32 ug/ml) was 0. The “Growth of EMRSA-15” value (EMRSA-15 [1]; E1 20 ug/ml, oxacillin 64 ug/ml) was 0, the “Growth of EMRSA-15” value (EMRSA-15 [1]; E1 20 ug/ml, oxacillin 128 ug/ml) was 0 and the “binding to MecA and block of oxacillin binding” value [6] was “bind to MecA and block oxycillin binding to MecA”.
